Source: publication PMC8274241
Like-named read-outs stand apart in the source and are kept apart here.

Legend:
Assay in all cases: cryo-EM
LshCas13a [1] = biological target: T1, LshCas13a (Leptotrichia shahii, UniProt P0DOC6 1-1389)
T1 sequence: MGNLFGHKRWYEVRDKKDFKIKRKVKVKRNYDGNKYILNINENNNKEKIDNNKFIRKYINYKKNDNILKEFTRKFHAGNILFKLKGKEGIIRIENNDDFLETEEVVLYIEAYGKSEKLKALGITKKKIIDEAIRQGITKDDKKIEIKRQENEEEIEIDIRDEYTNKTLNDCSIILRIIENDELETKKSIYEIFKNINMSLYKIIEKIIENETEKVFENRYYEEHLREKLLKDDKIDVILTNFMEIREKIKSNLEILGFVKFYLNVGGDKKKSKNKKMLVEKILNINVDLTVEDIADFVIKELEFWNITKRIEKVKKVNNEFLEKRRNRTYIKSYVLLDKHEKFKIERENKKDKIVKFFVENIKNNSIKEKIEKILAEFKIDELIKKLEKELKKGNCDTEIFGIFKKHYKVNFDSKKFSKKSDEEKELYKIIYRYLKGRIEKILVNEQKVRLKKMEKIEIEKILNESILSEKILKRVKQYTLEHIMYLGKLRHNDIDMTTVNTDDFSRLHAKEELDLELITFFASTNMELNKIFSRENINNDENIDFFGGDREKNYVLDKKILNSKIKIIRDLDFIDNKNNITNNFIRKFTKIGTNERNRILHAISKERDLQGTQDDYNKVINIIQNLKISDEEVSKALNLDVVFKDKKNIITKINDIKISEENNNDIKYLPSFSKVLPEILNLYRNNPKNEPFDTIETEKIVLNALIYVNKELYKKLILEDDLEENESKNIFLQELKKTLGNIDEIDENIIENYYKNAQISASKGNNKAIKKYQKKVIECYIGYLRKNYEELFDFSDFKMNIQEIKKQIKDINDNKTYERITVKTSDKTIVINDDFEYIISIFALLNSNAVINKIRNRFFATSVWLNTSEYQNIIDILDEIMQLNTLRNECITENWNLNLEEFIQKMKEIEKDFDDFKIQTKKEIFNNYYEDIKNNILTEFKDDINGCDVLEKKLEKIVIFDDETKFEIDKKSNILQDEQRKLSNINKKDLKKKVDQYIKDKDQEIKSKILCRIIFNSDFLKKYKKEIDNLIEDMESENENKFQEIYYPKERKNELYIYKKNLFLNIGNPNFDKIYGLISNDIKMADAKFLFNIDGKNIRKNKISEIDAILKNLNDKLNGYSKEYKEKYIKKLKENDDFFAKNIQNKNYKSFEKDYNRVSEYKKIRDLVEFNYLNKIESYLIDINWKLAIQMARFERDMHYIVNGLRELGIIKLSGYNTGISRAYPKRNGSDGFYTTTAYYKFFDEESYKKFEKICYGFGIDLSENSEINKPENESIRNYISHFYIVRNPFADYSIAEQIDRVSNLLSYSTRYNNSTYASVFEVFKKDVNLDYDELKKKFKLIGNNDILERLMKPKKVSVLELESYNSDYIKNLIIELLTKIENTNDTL

LshCas13a [2] = biological target: T1, LshCas13a; remark: listed apart in the source
LshCas13a [3] = biological target: T1, LshCas13a; remark: listed apart in the source

B1: Lsh crRNA (56-nt as named) + RNA6 (8-nt anti-tag) (mixed)
RNA 1: GGCCACCCCAAUAUCGAAGGGGACUAAAACUAGAUUGCUGUUCUACCAAGUAAUCCAU
RNA 2: GAUGGAUUACUUGGUAGAACAGCAAUCUAGUUUUAGU
LshCas13a [1]
  binding result: binds

B2: Lsh crRNA + RNA4 (no anti-tag) (mixed)
RNA 1: GGCCACCCCAAUAUCGAAGGGGACUAAAACUAGAUUGCUGUUCUACCAAGUAAUCCAU
RNA 2: GAUGGAUUACUUGGUAGAACAGCAAUCUACAAAAUCA
LshCas13a [2]
  binding result: binds

B3: Lsh crRNA alone (structured_RNA)
RNA: GGCCACCCCAAUAUCGAAGGGGACUAAAACUAGAUUGCUGUUCUACCAAGUAAUCCAU
LshCas13a [3]
  binding result: binds
